Measurements reported in patent US20050282743A1, “Molecular interactions in cells” (Arbor Vita Corporation, priority 2001, published 2005).
One block for each binder: values may come before it.

Experiments:
[1] = target: GST-KIAA1634 PDZ domain 5 (Homo sapiens (Human)), Q5TCQ9; test: G' assay; note: key of the grades not given here
[2] = target: T1, GST-KIAA0807(S) PDZ domain 1 (Homo sapiens (Human)), Q6P0Q8; test: G' assay; note: key of the grades not given here
T1 chain: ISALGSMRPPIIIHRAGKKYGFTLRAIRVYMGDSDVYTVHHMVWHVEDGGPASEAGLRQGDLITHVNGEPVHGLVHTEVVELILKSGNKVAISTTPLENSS

[3] = target: T2, GST-LIM Mystique PDZ domain 1 (Homo sapiens (Human)), Q96JY6; test: G' assay; note: key of the grades not given here
T2 chain: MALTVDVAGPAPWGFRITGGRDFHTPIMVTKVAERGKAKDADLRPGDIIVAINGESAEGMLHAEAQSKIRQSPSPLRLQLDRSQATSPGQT

[4] = target: T3, GST-novel PDZ gene PDZ domain 1 (Homo sapiens (Human)), Q9H5P4; test: G' assay; note: key of the grades not given here
T3 chain: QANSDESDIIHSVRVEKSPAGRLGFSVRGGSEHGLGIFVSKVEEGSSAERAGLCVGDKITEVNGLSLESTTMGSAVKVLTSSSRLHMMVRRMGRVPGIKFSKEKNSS

[5] = target: T4, GST-KIAA0973 PDZ domain 1 (Homo sapiens (Human)), Q9Y2H9; test: G' assay; note: key of the grades not given here
T4 chain: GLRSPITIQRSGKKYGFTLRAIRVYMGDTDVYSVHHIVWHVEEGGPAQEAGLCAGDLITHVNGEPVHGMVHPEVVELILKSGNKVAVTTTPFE

[6] = target: GST-KIAA807 [GST: P08515]; test: G' assay; note: key of the grades not given here
Sequence of GST-KIAA807 [GST: P08515] (P08515 whole entry, the tested form may be a part): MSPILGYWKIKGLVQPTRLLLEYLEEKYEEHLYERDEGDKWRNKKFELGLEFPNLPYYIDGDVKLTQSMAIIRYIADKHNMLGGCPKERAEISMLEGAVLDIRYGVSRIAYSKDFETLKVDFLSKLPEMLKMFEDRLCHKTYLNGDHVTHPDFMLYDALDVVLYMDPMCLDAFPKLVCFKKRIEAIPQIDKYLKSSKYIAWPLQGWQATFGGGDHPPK

[7] = target: T5, GST-AIPC PDZ domain 1 (Homo sapiens (Human)), O15018; test: G' assay; note: key of the grades not given here
T5 chain: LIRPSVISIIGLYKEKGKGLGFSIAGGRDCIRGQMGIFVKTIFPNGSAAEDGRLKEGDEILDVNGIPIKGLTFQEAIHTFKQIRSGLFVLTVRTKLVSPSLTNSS

[8] = target: T6, GST-MUPP1 PDZ domain 7 (Homo sapiens (Human)), O75970; test: G' assay; note: key of the grades not given here
T6 chain: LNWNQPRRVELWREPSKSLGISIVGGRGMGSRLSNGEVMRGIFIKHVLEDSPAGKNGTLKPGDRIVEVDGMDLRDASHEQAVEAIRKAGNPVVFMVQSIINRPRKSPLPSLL

[9] = target: T7, GST-KIAA1526 PDZ domain 1 (Homo sapiens (Human)), Q9P202; test: G' assay; note: key of the grades not given here
T7 chain: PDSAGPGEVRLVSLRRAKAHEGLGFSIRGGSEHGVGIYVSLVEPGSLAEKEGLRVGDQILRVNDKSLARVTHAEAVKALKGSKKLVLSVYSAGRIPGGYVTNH

[10] = target: T8, GST-MINT1 PDZ domain 2 (Mus musculus (Mouse)), B2RUJ5; test: G' assay; note: key of the grades not given here
T8 chain: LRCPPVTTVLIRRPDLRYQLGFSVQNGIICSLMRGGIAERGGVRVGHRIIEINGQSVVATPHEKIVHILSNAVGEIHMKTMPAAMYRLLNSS

[11] = target: T9, GST-MUPP1 PDZ domain 9 (Homo sapiens (Human)), O75970; test: G' assay; note: key of the grades not given here
T9 chain: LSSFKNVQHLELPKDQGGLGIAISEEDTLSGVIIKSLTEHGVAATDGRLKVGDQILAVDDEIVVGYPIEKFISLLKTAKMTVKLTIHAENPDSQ

[12] = target: T10, GST-LIM-RIL PDZ domain 1 (Homo sapiens (Human)), P50479; test: G' assay; note: key of the grades not given here
T10 chain: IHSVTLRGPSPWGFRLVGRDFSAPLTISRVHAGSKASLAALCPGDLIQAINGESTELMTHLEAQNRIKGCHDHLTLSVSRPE

[13] = target: T11, GST-Shank 1 PDZ domain 1 (Homo sapiens (Human)), Q9UPX8; test: G' assay; note: key of the grades not given here
T11 chain: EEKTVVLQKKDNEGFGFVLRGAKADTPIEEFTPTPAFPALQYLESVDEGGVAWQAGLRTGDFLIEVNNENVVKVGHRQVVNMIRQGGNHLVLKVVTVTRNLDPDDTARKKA

[14] = target: T12, GST-ENIGMA PDZ domain 1 (Homo sapiens (Human)), Q9NR12; test: G' assay; note: key of the grades not given here
T12 chain: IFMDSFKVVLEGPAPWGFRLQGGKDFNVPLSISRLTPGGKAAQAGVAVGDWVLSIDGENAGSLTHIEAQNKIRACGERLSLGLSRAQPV

[15] = target: GST-PAR3 PDZ domain 3 (Homo sapiens (Human)), Q8TEW0; test: G' assay; note: key of the grades not given here
Sequence of GST-PAR3 PDZ domain 3 (Homo sapiens (Human)), Q8TEW0 (Q8TEW0 579-681): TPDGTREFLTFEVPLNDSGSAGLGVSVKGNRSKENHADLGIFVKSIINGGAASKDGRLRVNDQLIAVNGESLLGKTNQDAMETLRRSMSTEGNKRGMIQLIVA

[16] = target: T13, GST-MUPP1 PDZ domain 13 (Homo sapiens (Human)), O75970; test: G' assay; note: key of the grades not given here
T13 chain: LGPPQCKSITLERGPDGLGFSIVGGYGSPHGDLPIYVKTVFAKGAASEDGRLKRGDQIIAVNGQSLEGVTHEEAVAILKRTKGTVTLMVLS

[17] = target: GST-BAI-1 Associated Protein PDZ domain 6 (Homo sapiens (Human)), Q96QZ7; test: G' assay; note: key of the grades not given here
Sequence of GST-BAI-1 Associated Protein PDZ domain 6 (Homo sapiens (Human)), Q96QZ7 (Q96QZ7 1143-1233): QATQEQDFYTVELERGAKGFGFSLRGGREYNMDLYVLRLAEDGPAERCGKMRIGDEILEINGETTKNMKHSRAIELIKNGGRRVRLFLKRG

[18] = target: T14, GST-APXL-1 PDZ domain 1 (Homo sapiens (Human)), Q13796; test: G' assay; note: key of the grades not given here
T14 chain: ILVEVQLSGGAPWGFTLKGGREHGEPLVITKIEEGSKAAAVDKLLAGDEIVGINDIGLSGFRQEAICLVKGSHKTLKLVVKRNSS

[19] = target: T15, GST-PTPL1 PDZ domain 2 (Homo sapiens (Human)), Q12923; test: G' assay; note: key of the grades not given here
T15 chain: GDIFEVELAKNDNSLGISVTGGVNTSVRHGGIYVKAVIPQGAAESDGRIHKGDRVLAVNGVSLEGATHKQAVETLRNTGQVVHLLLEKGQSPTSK

[20] = target: T16, GST-KIAA0382 PDZ domain 1 (Canis lupus familiaris (Dog) (Canis familiaris)), A0A8I3; test: G' assay; note: key of the grades not given here
T16 chain: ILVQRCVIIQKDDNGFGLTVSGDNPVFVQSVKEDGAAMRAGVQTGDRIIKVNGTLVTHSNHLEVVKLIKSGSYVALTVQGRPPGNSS

[21] = target: T1, GST-KIAA0807(S) PDZ domain 1 (Homo …); test: G assay titration, PDZ 0.5 ug/ml
[22] = target: T17, GST-Outer Membrane PDZ domain 1 (Homo sapiens (Human)), P57105; test: G' assay; note: key of the grades not given here
T17 chain: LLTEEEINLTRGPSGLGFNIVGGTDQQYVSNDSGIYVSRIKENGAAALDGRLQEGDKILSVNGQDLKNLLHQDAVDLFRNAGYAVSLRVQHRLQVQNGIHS

[23] = target: GST-PSD95 PDZ domains 1, 2, 3 (Homo sapiens), P78352; test: G' assay; note: key of the grades not given here
Sequence of GST-PSD95 PDZ domains 1, 2, 3 (Homo sapiens), P78352 (P78352 62-395): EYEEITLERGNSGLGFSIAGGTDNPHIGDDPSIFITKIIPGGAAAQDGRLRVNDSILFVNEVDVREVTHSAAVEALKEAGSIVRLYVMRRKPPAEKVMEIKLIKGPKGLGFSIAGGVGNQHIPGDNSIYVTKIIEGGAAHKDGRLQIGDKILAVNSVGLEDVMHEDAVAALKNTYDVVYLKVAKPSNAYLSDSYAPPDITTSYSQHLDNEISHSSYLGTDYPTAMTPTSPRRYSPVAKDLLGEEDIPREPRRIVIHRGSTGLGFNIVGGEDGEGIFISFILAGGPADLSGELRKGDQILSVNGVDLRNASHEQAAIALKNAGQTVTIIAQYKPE

[24] = target: T18, GST-KIAA0303 PDZ domain 1 (Homo sapiens (Human)), O15021; test: G' assay; note: key of the grades not given here
T18 chain: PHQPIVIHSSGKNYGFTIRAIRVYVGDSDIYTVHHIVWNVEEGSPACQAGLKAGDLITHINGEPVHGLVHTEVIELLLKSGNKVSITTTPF

[25] = target: GST-BAI-1 Associated Protein PDZ domain 2 (Mus musculus (Mouse)), Q6RHR9; test: G' assay; note: key of the grades not given here
Sequence of GST-BAI-1 Associated Protein PDZ domain 2 (Mus musculus (Mouse)), Q6RHR9 (Q6RHR9 455-558): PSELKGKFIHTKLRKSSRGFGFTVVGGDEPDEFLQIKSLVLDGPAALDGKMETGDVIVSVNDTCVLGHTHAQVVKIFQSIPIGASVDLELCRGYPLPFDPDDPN

[26] = target: GST-BAI-1 Associated Protein PDZ domain 4 (Homo sapiens (Human)), Q96QZ7; test: G' assay; note: key of the grades not given here
Sequence of GST-BAI-1 Associated Protein PDZ domain 4 (Homo sapiens (Human)), Q96QZ7 (Q96QZ7 other isoform, or with tags, fused parts or gaps): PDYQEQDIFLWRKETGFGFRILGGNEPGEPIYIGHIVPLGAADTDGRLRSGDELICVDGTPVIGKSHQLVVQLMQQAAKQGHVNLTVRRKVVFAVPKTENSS

[27] = target: T19, GST-TIP1 PDZ domain 1 (Table 9 insert) (Homo sapiens (Human)), O14907; test: G' assay; note: key of the grades not given here
T19 chain: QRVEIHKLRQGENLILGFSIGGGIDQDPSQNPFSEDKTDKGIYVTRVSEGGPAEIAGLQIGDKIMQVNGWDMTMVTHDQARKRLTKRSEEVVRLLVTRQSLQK

[28] = target: GST-Atrophin-1 Interacting Protein PDZ domain 5 (Rattus norvegicus (Rat)), O88382; test: G' assay; note: key of the grades not given here
Sequence of GST-Atrophin-1 Interacting Protein PDZ domain 5 (Rattus norvegicus (Rat)), O88382 (O88382 1128-1225): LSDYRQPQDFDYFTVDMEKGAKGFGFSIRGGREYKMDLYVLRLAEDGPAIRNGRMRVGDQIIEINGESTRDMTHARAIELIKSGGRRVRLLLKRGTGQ

[29] = target: GST-KIAA0147 PDZ domain 1 (Homo sapiens (Human)), Q14160; test: G' assay; note: key of the grades not given here
Sequence of GST-KIAA0147 PDZ domain 1 (Homo sapiens (Human)), Q14160 (Q14160 other isoform, or with tags, fused parts or gaps): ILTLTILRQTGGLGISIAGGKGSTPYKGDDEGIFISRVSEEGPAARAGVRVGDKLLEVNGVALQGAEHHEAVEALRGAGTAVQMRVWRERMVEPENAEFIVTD

[30] = target: T20, GST-PTN-4 PDZ domain 1 (Homo sapiens (Human)), P29074; test: G' assay; note: key of the grades not given here
T20 chain: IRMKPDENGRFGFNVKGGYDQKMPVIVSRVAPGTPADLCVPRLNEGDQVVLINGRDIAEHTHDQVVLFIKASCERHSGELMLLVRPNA

[31] = target: T21, GST-Shank 3 PDZ domain 1 (human (hypothetical, computer cloned)), Q9BYB0; test: G' assay; note: key of the grades not given here
T21 chain: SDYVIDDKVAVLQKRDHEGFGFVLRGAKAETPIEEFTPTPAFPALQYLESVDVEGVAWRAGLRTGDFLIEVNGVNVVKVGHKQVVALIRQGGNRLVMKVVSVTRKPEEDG

[32] = target: GST-KIAA0316 PDZ domain 1 (Homo sapiens (Human)), Q14CM0; test: G' assay; settings: remark: other sources report otherwise; note: key of the grades not given here
Sequence of GST-KIAA0316 PDZ domain 1 (Homo sapiens (Human)), Q14CM0 (Q14CM0 72-159): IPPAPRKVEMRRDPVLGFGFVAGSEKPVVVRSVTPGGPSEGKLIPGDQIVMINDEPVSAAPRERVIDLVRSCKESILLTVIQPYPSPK

[33] = target: GST-PIST PDZ domain 1 (Mus musculus (Mouse)), Q8BH60; test: G' assay; note: key of the grades not given here
[34] = target: T22, GST-FLJ00011 PDZ domain 1 (Homo sapiens (Human)), Q9H5P4; test: G' assay; note: key of the grades not given here
T22 chain: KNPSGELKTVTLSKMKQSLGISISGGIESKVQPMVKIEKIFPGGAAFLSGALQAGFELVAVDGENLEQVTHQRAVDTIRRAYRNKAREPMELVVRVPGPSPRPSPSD

[35] = target: T23, GST-PDZK1 PDZ domains 2, 3, 4, Q5T2W1; test: G' assay; note: key of the grades not given here
T23 chain: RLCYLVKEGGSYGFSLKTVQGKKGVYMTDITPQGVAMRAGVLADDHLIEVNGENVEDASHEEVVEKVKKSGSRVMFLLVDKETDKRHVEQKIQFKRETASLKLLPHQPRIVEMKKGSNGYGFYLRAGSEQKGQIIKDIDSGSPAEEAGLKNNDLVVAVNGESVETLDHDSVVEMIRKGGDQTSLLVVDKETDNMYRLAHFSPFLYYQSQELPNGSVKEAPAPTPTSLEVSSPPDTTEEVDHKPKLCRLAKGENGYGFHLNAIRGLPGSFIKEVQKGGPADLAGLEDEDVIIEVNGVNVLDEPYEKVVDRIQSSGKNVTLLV

[36] = target: T24, GST-ZO-1 PDZ domain 1 (Rattus norvegicus (Rat)), A0A0G2; test: G' assay; note: key of the grades not given here
T24 chain: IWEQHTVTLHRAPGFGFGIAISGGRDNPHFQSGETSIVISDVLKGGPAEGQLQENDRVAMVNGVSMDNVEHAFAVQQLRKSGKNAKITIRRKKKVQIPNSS

[37] = target: T25, GST-ZO-2 PDZ domain 2 (Homo sapiens (Human)), Q9UDY2; test: G' assay; note: key of the grades not given here
T25 chain: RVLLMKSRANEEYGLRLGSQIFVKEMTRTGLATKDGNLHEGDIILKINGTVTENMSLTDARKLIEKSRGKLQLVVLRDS

[38] = target: T26, GST-ZO-1 PDZ domain 2 (Rattus norvegicus (Rat)), A0A0G2; test: G' assay; note: key of the grades not given here
T26 chain: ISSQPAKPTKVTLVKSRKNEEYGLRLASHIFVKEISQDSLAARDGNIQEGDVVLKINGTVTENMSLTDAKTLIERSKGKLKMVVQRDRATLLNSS

Sequence of GST-KIAA1634 PDZ domain 5 (Homo sapiens (Human)), Q5TCQ9 (Q5TCQ9 other isoform, or with tags, fused parts or gaps): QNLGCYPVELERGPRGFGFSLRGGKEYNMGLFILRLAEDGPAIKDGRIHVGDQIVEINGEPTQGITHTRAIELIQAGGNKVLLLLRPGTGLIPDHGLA

B2: GluR delta-2 (peptide)
peptide: QPTPTLGLNLGNDPDRGTSI
modifications: not checked
Kd [21]: 4 µM
Classification [2]: 4 A450 class
Classification [6]: 3 A450 class
Classification [9]: 2 A450 class
Classification [22]: 2 A450 class

B3: alpha-2B Adrenergic receptor (peptide)
peptide: QDFRRAFRRILARPWTQTAW
modifications: not checked
Classification [23]: 5 A450 class
Classification [24]: 4 A450 class
Classification [6]: 4 A450 class
Classification [25]: 4 A450 class
Classification [26]: 5 A450 class
Classification [27]: 5 A450 class

B4: CD34 (peptide)
peptide: QATSRNGHSARQHVVADTEL
modifications: not checked
Classification [28]: 1 A450 class
Classification [1]: 1 A450 class
Classification [29]: 1 A450 class
Classification [2]: 3 A450 class
Classification [6]: 5 A450 class
Classification [12]: 1 A450 class
Classification [13]: 1 A450 class
Classification [30]: 1 A450 class
Classification [17]: 1 A450 class
Classification [20]: 1 A450 class

B5: PAG (peptide)
peptide: KENDYESISDLQQGRDITRL
modifications: not checked
Kd [21]: 0.35 µM
Classification [28]: 1 A450 class
Classification [31]: 2 A450 class
Classification [32]: 1 A450 class
Classification [2]: 5 A450 class
Classification [6]: 5 A450 class
Classification [33]: 1 A450 class
Classification [13]: 4 A450 class
Classification [34]: 3 A450 class
Classification [22]: 2 A450 class
Classification [18]: 2 A450 class
Classification [35]: 1 A450 class
Classification [20]: 1 A450 class

The remaining lines, values ahead:

Classification [1]: 1 A450 class
Classification [2]: 5 A450 class
Classification [3]: 2 A450 class
Classification [4]: 1 A450 class
Classification [5]: 2 A450 class
Classification [6]: 5 A450 class
Classification [7]: 1 A450 class
Classification [8]: 1 A450 class
Classification [9]: 1 A450 class
Classification [10]: 2 A450 class
Classification [11]: 1 A450 class
Classification [12]: 2 A450 class
Classification [13]: 1 A450 class
Classification [14]: 1 A450 class
Classification [15]: 1 A450 class
Classification [16]: 2 A450 class
Classification [17]: 2 A450 class
Classification [18]: 2 A450 class
Classification [19]: 2 A450 class
Classification [20]: 2 A450 class
B1: zona occludens 3 (ZO-3) PL peptide (peptide)
peptide: VHDAESSDEDGYDWGPATDL
modifications: not checked

Classification [36]: 1 A450 class
Classification [37]: 1 A450 class
Classification [38]: 1 A450 class
Classification [9]: 1 A450 class
B6: neurofascin (chicken) (peptide)
peptide: TEGNESSEATSPVNAIYSLA
modifications: not checked
